The values below come from patent US20220243196, “[…] METHOD OF APTAMER AND IMMUNOASSAY USING THE APTAMER” (SB BIOSCIENCE CO., LTD., published 2022).

The target in one data set is Ebola NP (Ebola virus, UniProt P18272 P18272:1-739). The experiment in a line: ELONA.
For the next data set, the target named is SARS-CoV-2 NP (SARS-CoV-2, UniProt P0DTC9 P0DTC9:1-419). Put plainly: ELONA.
For a further data set, the target named is HIV-1 p24 (Human immunodeficiency virus 1, UniProt P04591 P04591:133-363). The experiment in a line: ELONA; antibody-antigen-aptamer sandwich with RPA readout.

B1: Ebola NP aptamer (ssDNA)
DNA: GATGTGAGTGACGTGGATCGAGCGGATGTGAAGGCTGAAAGTGGCTTTGGGCGGTCGTAAGTGTCACAGAGCATGCAACAAGACC
Consider B1, for which the binding result in the data set with Ebola NP is on record as “binds”.

B2: SARS-CoV-2 NP aptamer (ssDNA)
DNA: ATCCAGAGTGACGCAGCAAACCCAAGCAAACTACCTCTATACCCTTCGACCTTCATCATGGACACGGTGGCTTAGT
B2: the binding result in the data set with SARS-CoV-2 NP is reported as “binds”.

B3: HIV-1 p24 aptamer (ssDNA)
DNA: AGATACTGCCATTCATTGCATCGAGCACGCGACTGATGAGGATGGTCTAGTAGCTGGGGTCGAGTACTAAGCTATGTGTCGA
With B3, the binding result in the data set with HIV-1 p24 is “binds”.
